Laboratory results reported in paper PMC5170609 (Molecular Biology of the Cell, 2016).

Key:
Assay in all cases: ELISA
[1] = biological target: desmin E245D (recombinant, desminopathy-linked mutant) (UniProt P17661 1-470, E245D)
[2] = biological target: wild-type full-length desmin (recombinant) (UniProt P17661 1-470)
[3] = biological target: desmin T453I (recombinant, desminopathy-linked mutant) (UniProt P17661 1-470, T453I)
desmin T453I (recombinant, desminopathy-linked mutant), sequence (P17661 whole entry T453I): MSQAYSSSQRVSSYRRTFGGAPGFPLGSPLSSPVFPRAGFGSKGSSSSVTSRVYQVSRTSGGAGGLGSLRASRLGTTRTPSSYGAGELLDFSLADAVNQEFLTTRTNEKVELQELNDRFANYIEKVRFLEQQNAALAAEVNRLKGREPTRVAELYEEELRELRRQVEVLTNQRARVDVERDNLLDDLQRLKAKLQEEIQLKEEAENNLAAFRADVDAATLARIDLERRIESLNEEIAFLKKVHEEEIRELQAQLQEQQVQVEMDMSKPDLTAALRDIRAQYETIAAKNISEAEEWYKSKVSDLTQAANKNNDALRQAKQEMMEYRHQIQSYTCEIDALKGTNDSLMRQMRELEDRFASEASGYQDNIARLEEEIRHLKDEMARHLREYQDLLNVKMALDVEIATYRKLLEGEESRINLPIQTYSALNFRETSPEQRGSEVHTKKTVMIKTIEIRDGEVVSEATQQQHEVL

desmin E245D (recombinant, desminopathy-linked mutant), sequence (P17661 whole entry E245D): as the sequence (P17661 whole entry T453I) above, with E245D, I453T counted along it
wild-type full-length desmin (recombinant), sequence (P17661 whole entry): as the sequence (P17661 whole entry T453I) above, with I453T counted along it

B1: His-nebulette modules 1–5 (recombinant) (domain or fragment, UniProt O76041 32-213, looked up)
chain: PVIEDLSMELARKCTELISDIRYKEEFKKSKDKCTFVTDSPMLNHVKNIGAFISEAKYKGTIKADLSNSLYKRMPATIDSVFAGEVTQLQSEVAYKQKHDAAKGFSDYAHMKEPPEVKHAMEVNKHQSNISYRKDVQDTHTYSAELDRPDIKMATQISKIISNAEYKKGQGIMNKEPAVIGR
Kd [1]: 5 to 6 nM
Kd [2]: 16 to 24 nM
Kd [3]: 3 nM
